Test results published in PMC9427789.

Each substance was assayed against His-SUMO-FGF23 (N-terminal domain of human FGF23, wild type) (human) (UniProt Q9GZV9) (assay: ELISA).
His-SUMO-FGF23 (N-terminal domain of human FGF23, wild type) (human), sequence (Q9GZV9 25-204): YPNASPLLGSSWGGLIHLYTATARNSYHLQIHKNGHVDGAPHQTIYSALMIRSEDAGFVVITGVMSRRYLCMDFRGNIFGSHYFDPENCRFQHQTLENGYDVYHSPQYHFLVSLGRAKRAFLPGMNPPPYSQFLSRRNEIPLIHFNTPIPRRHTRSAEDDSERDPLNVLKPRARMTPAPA

Row | Kd [nM] | Substance
1 | 0.7 | Burosumab VL:S52D
2 | 0.73 | Burosumab VL:S67Y
3 | 0.86 | Burosumab VL:T69D
